# B1: bovine phospho-mimetic S116D endothelial nitric oxide synthase (eNOS) (enzyme, UniProt P29473 1-1205, looked up)
# chain: MGNLKSVGQEPGPPCGLGLGLGLGLCGKQGPASPAPEPSRAPAPATPHAPDHSPAPNSPTLTRPPEGPKFPRVKNWELGSITYDTLCAQSQQDGPCTPRCCLGSLVLPRKLQTRPDPGPPPAEQLLSQARDFINQYYSSIKRSGSQAHEERLQEVEAEVASTGTYHLRESELVFGAKQAWRNAPRCVGRIQWGKLQVFDARDCSSAQEMFTYICNHIKYATNRGNLRSAITVFPQRAPGRGDFRIWNSQLVRYAGYRQQDGSVRGDPANVEITELCIQHGWTPGNGRFDVLPLLLQAPDEAPELFVLPPELVLEVPLEHPTLEWFAALGLRWYALPAVSNMLLEIGGLEFSAAPFSGWYMSTEIGTRNLCDPHRYNILEDVAVCMDLDTRTTSSLWKDKAAVEINLAVLHSFQLAKVTIVDHHAATVSFMKHLDNEQKARGGCPADWAWIVPPISGSLTPVFHQEMVNYILSPAFRYQPDPWKGSATKGAGITRKKTFKEVANAVKISASLMGTLMAKRVKATILYASETGRAQSYAQQLGRLFRKAFDPRVLCMDEYDVVSLEHEALVLVVTSTFGNGDPPENGESFAAALMEMSGPYNSSPRPEQHKSYKIRFNSVSCSDPLVSSWRRKRKESSNTDSAGALGTLRFCVFGLGSRAYPHFCAFARAVDTRLEELGGERLLQLGQGDELCGQEEAFRGWAKAAFQASCETFCVGEEAKAAAQDIFSPKRSWKRQRYRLSTQAEGLQLLPGLIHVHRRKMFQATVLSVENLQSSKSTRATILVRLDTAGQEGLQYQPGDHIGICPPNRPGLVEALLSRVEDPPPPTESVAVEQLEKGSPGGPPPSWVRDPRLPPCTLRQALTFFLDITSPPSPRLLRLLSTLAEEPSEQQELETLSQDPRRYEEWKWFRCPTLLEVLEQFPSVALPAPLLLTQLPLLQPRYYSVSSAPNAHPGEVHLTVAVLAYRTQDGLGPLHYGVCSTWLSQLKTGDPVPCFIRGAPSFRLPPDPYVPCILVGPGTGIAPFRGFWQERLHDIESKGLQPAPMTLVFGCRCSQLDHLYRDEVQDAQERGVFGRVLTAFSREPDSPKTYVQDILRTELAAEVHRVLCLERGHMFVCGDVTMATSVLQTVQRILATEGDMELDEAGDVIGVLRDQQRYHEDIFGLTLRTQEVTSRIRTQSFSLQERHLRGAVPWAFDPPGPDTPGP
# Molecular target: GST fusion protein of human full-length (FL) Pin1 (residues 1-163) (human, UniProt Q13526 1-163)
# Test: pull-down
# GST fusion protein of human full-length (FL) Pin1 (residues 1-163), sequence (Q13526 whole entry, the tested form may be a part): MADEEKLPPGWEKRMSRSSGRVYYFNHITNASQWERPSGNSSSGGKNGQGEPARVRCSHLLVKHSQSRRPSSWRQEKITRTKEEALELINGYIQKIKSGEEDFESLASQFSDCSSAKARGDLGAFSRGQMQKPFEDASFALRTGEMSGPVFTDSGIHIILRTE
binder,measurement,value
B1,amount bound relative to WT eNOS,> 2 fold

# — article PMC5439444 (Vascular pharmacology, 2016)
